Measured values taken from PMC6316659.

Tests used:
[1] = target: native BPL2 (Bryopsis plumosa mannose-binding lectin 2) (Bryopsis plumosa)
[2] = target: rD4BPL2 (recombinant Bryopsis plumosa lectin 2, tetrameric tandem repeat construct) (Bryopsis plumosa)

- minimum concentration of fetuin that inhibits the agglutination of a 4% horse erythrocyte suspension by 4 HU lectin [1]: 195 µg/mL
- minimum concentration of fetuin that inhibits the agglutination of a 4% horse erythrocyte suspension by 4 HU lectin [2]: 12.2 µg/mL
B1: bovine serum fetuin (natural protein)
chain: IPLDPVAGYKEPACDDPDTEQAALAAVDYINKHLPRGYKHTLNQIDSVKVWPRRPTGEVYDIEIDTLETTCHVLDPTPLANCSVRQQTQHAVEGDCDIHVLKQDGQFSVLFTKCDSSPDSAEDVRKLCPDCPLLAPLNDSRVVHAVEVALATFNAESNGSYLQLVEISRAQFVPLPVSVSVEFAVAATDCIAKEVVDPTKCNLLAEKQYGFCKGSVIQKALGGEDVRVTCTLFQTQPVIPQPQPDGAEAEAPSAVPDAAGPTPSAAGPPVASVVVGPSVVAVPLPLHRAHYDLRHTFSGVASVESSSGEAFHVGKTPIVGQPSIPGGPVRLCPGRIRYFKI
